Here are results for 5 molecules from patent publication US20230048960A1 (University of Washington, published 2023).

Assay [1] concerns the target T1, Aβ42 (UniProt P05067 672-713). The assay can be described thus: cell-based or functional assay.
In assay [2] the target is T1, Aβ42. Briefly: cell-based or functional assay. The source holds these as a separate data set.

Square brackets hold non-standard residues; d marks the D form.

T1 sequence (P05067 672-713 limits assumed): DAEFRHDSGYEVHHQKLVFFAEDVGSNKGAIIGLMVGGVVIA

As for Ac-RGE[dM]N[dL]S[dW]M[dN][dE][dY][dY]GW[dT]M[dN]M[dK]CGR-NH2 (also: homodimer: Cys21 disulfide-bonded to Cys21 of other copy) [AP525d], in the assay with Aβ42 [1], the “% inhibition of fibril formation (ThT), AP:Aβ42 1:1” value worked out at 99.7%; the “% inhibition of fibril formation (ThT), AP:Aβ42 1:10” value stood at 98.3%; the “% inhibition of fibril formation (ThT), AP:Aβ42 1:100” value (from here on “% inhibition … AP:Aβ42 1:100”) came out at 89.2%.

B1: AP526m (peptide)
peptide: Ac-[dR]G[dE]M[dN]L[dS]W[dM][dN][dE][dY][dS]G[dW]T[dM]N[dC]K[dM]G[dR]-NH2
SMILES: CSCC[C@H](NC(=O)[C@@H](CCC(=O)O)NC(=O)CNC(=O)[C@@H](CCCNC(=N)N)NC(C)=O)C(=O)N[C@H](CC(N)=O)C(=O)N[C@@H](CC(C)C)C(=O)N[C@H](CO)C(=O)N[C@@H](Cc1c[nH]c2ccccc12)C(=O)N[C@H](CCSC)C(=O)N[C@H](CC(N)=O)C(=O)N[C@H](CCC(=O)O)C(=O)N[C@H](Cc1ccc(O)cc1)C(=O)N[C@H](CO)C(=O)NCC(=O)N[C@H](Cc1c[nH]c2ccccc12)C(=O)N[C@H](C(=O)N[C@H](CCSC)C(=O)N[C@@H](CC(N)=O)C(=O)N[C@H](CS)C(=O)N[C@@H](CCCCN)C(=O)N[C@H](CCSC)C(=O)NCC(=O)N[C@H](CCCNC(=N)N)C(N)=O)[C@@H](C)O
As for B1, in the assay with Aβ42 [1], the “% inhibition of fibril formation (ThT), AP:Aβ42 1:1” value amounted to 63.2%; the “% inhibition of fibril formation (ThT), AP:Aβ42 1:10” value worked out at 12.4%; the “% inhibition … AP:Aβ42 1:100” value amounted to 0%.

B2: AP527d (BMOE) (peptide)
peptide: Ac-[dR]G[dE]M[dN]L[dS]W[dM][dN][dE][dY][dY]G[dW]T[dM]N[dM]K[dC]G[dR]-NH2
modifications: also: homodimer linked by BMOE, linker at 21 via BMOE, other end not in the chain
In the case of B2, the “% Inhibition 1:10 (AP peptide:Abeta42), ThT assay” value with Aβ42 [2] is 80%.

B3: AP527d (MalPEG1) (peptide)
peptide: Ac-[dR]G[dE]M[dN]L[dS]W[dM][dN][dE][dY][dY]G[dW]T[dM]N[dM]K[dC]G[dR]-NH2
modifications: also: homodimer linked by MalPEG1, linker at 21 via MalPEG1, other end not in the chain
In the case of B3, in the assay with Aβ42 [2], the “% Inhibition 1:10 (AP peptide:Abeta42), ThT assay” value worked out at 75%.

B4: AP525m (peptide)
peptide: Ac-RGE[dM]N[dL]S[dW]M[dN][dE][dY][dY]GW[dT]M[dN]M[dK]CGR-NH2
SMILES: CSCC[C@H](NC(=O)[C@@H](CC(N)=O)NC(=O)[C@H](CCSC)NC(=O)[C@H](NC(=O)[C@H](Cc1c[nH]c2ccccc12)NC(=O)CNC(=O)[C@@H](Cc1ccc(O)cc1)NC(=O)[C@@H](Cc1ccc(O)cc1)NC(=O)[C@@H](CCC(=O)O)NC(=O)[C@@H](CC(N)=O)NC(=O)[C@H](CCSC)NC(=O)[C@@H](Cc1c[nH]c2ccccc12)NC(=O)[C@H](CO)NC(=O)[C@@H](CC(C)C)NC(=O)[C@H](CC(N)=O)NC(=O)[C@@H](CCSC)NC(=O)[C@H](CCC(=O)O)NC(=O)CNC(=O)[C@H](CCCNC(=N)N)NC(C)=O)[C@H](C)O)C(=O)N[C@H](CCCCN)C(=O)N[C@@H](CS)C(=O)NCC(=O)N[C@@H](CCCNC(=N)N)C(N)=O
For B4, in the assay with Aβ42 [1], the “% inhibition of fibril formation (ThT), AP:Aβ42 1:1” value is 53.5%; the “% inhibition of fibril formation (ThT), AP:Aβ42 1:10” value is 12.1%; the “% inhibition … AP:Aβ42 1:100” value was found to be 0%.
